Here are results for four substances from patent US20190127478A1.

One may read the Kd as a measure of binding affinity in units of concentration.

Experiment [1] has as its target Human PD-1 (soluble analyte, Octet RED 96) (human) (UniProt Q15116). In words: Octet RED 96.
In experiment [2] the target is cynomolgus monkey PD-1 (soluble analyte, Octet RED 96) (UniProt B0LAJ3). In words: Octet RED 96.
The target in experiment [3] is human PD1 receptor on Jurkat-PD1-NFAT-Luc2 reporter cells (human) (UniProt Q15116). In words: cell-based or functional assay.
Sequence of human PD1 receptor on Jurkat-PD1-NFAT-Luc2 reporter cells (human) (Q15116 25-288): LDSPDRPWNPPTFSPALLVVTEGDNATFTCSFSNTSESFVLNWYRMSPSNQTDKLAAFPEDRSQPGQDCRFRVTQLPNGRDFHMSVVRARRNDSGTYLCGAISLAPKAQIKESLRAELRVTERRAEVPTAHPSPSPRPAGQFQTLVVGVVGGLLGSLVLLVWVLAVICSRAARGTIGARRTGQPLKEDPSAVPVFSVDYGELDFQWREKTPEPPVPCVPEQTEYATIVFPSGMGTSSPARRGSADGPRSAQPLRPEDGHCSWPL
Experiment [4] deals with FcRn. In words: Octet RED 96.
In experiment [5] the target is FcgRIIIaV. In words: Octet RED 96.
For experiment [6], the target named is FcgRIIaH. In words: Octet RED 96.
Experiment [7] deals with FcgRIIb. In words: Octet RED 96. (In general: BLI is a label-free optical method that tracks binding on a fibre tip over time.)
For experiment [8], the target named is FcgRIa. The experiment can be described thus: Octet RED 96.

Sequence of Human PD-1 (soluble analyte, Octet RED 96) (human) (Q15116 25-167): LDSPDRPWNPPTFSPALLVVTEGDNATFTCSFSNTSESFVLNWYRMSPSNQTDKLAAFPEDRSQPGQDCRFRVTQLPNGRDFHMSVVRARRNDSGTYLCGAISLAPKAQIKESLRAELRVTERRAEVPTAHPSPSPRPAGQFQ

As to BCD-100, the Kd in experiment [1] was 0.186 nM; in experiment [2] it was under 0.001 nM.

BCD-100 (antibody) displayed an effective dose (ED50), reactivation of NFAT-luciferase luminescence in Jurkat-PD1-NFAT reporter line in experiment [3] of 115.

With Nivolumab IgG4, the Kd is 9.52 nM in experiment [4]; 4200 nM in experiment [5]; 1600 nM in experiment [6]; 280 nM in experiment [7]; 64 nM in experiment [8].

For Pembrolizumab IgG4, the Kd in experiment [4] worked out at 5.1 nM; in experiment [5], 5000 nM; in experiment [6] it was 1300 nM; in experiment [7], 2300 nM; in experiment [8], 50 nM.
